Results: publication PMC9279153, “Structure of the Dicer-2–R2D2 heterodimer bound to a small RNA duplex”

Assays:
Dicer-2;R2D2 [1] = biological target: T1, Dicer-2;R2D2 (Drosophila;Drosophila, UniProt A1ZAW0;Q9VLW8 1-1722;1-311, |); assay: photocrosslinking; crosslinks to R2D2, similar to 2-nt overhang; Crosslinking: 20 nM siRNA, 40 nM Dicer-2-R2D2, 30 min, >300 nm UV 60 s, buffer not given; structure: 30 mM Hepes-KOH pH 7.4, 100 mM potassium acetate, 2 mM magnesium acetate, 1 mM DTT, 0.02% glycerol, protein:siRNA 1:2 mixed at room temperature; details: protein: recombinant;recombinant; tags: 8xHis (structure prep);3xFlag; copies: 1;1; U-U mismatch at nt 1 of strand 1
Dicer-2;R2D2 [2] = biological target: T1, Dicer-2;R2D2; assay: photocrosslinking; g* crosslinks to R2D2; Crosslinking: 20 nM siRNA, 40 nM Dicer-2-R2D2, 30 min, >300 nm UV 60 s, buffer not given; structure: 30 mM Hepes-KOH pH 7.4, 100 mM potassium acetate, 2 mM magnesium acetate, 1 mM DTT, 0.02% glycerol, protein:siRNA 1:2 mixed at room temperature; details: protein: recombinant;recombinant; tags: 8xHis (structure prep);3xFlag; copies: 1;1; 3' overhang 2 nt on both strands
Dicer-2;R2D2 K98A = Dicer-2;R2D2 K98A (Drosophila;Drosophila, UniProt A1ZAW0;Q9VLW8 1-1722;1-311, |K98A); assay: photocrosslinking; g* crosslinking not affected by K98A; Crosslinking: 20 nM siRNA, 40 nM Dicer-2-R2D2, 30 min, >300 nm UV 60 s, buffer not given; structure: 30 mM Hepes-KOH pH 7.4, 100 mM potassium acetate, 2 mM magnesium acetate, 1 mM DTT, 0.02% glycerol, protein:siRNA 1:2 mixed at room temperature; details: protein: recombinant;recombinant; tags: 8xHis (structure prep);3xFlag; copies: 1;1; 3' overhang 2 nt on both strands
Dicer-2;R2D2 CTD Δα2 = Dicer-2;R2D2 CTD Δα2 (Drosophila;Drosophila, UniProt A1ZAW0;Q9VLW8 1-1722;1-201+=GGGS+215-311, |internal_change); assay: photocrosslinking; g* crosslink to R2D2 abolished, g* crosslink to Dicer-2 increased (opposite orientation); Crosslinking: 20 nM siRNA, 40 nM Dicer-2-R2D2, 30 min, >300 nm UV 60 s, buffer not given; structure: 30 mM Hepes-KOH pH 7.4, 100 mM potassium acetate, 2 mM magnesium acetate, 1 mM DTT, 0.02% glycerol, protein:siRNA 1:2 mixed at room temperature; details: protein: recombinant;recombinant; tags: 8xHis (structure prep);3xFlag; copies: 1;1; 3' overhang 2 nt on both strands
Dicer-2;R2D2 [3] = biological target: T1, Dicer-2;R2D2; assay: photocrosslinking; crosslinks to R2D2; Crosslinking: 20 nM siRNA, 40 nM Dicer-2-R2D2, 30 min, >300 nm UV 60 s, buffer not given; structure: 30 mM Hepes-KOH pH 7.4, 100 mM potassium acetate, 2 mM magnesium acetate, 1 mM DTT, 0.02% glycerol, protein:siRNA 1:2 mixed at room temperature; details: protein: recombinant;recombinant; tags: 8xHis (structure prep);3xFlag; copies: 1;1; 3' overhang 2 nt on strand 2; U-U mismatch at nt 1 of strand 1
Dicer-2;R2D2 [4] = biological target: T1, Dicer-2;R2D2; assay: cryo-EM; two duplexes: one on R2D2 (well resolved), one on Dicer-2 helicase (poorly resolved); Crosslinking: 20 nM siRNA, 40 nM Dicer-2-R2D2, 30 min, >300 nm UV 60 s, buffer not given; structure: 30 mM Hepes-KOH pH 7.4, 100 mM potassium acetate, 2 mM magnesium acetate, 1 mM DTT, 0.02% glycerol, protein:siRNA 1:2 mixed at room temperature; details: protein: recombinant;recombinant; tags: 8xHis (structure prep);3xFlag; copies: 1;1; 19-nt duplex region with U-U mismatch at g1:p19; 3' overhang 2 nt on both strands

T1 sequence (A1ZAW0 whole entry, chain 1 of 2): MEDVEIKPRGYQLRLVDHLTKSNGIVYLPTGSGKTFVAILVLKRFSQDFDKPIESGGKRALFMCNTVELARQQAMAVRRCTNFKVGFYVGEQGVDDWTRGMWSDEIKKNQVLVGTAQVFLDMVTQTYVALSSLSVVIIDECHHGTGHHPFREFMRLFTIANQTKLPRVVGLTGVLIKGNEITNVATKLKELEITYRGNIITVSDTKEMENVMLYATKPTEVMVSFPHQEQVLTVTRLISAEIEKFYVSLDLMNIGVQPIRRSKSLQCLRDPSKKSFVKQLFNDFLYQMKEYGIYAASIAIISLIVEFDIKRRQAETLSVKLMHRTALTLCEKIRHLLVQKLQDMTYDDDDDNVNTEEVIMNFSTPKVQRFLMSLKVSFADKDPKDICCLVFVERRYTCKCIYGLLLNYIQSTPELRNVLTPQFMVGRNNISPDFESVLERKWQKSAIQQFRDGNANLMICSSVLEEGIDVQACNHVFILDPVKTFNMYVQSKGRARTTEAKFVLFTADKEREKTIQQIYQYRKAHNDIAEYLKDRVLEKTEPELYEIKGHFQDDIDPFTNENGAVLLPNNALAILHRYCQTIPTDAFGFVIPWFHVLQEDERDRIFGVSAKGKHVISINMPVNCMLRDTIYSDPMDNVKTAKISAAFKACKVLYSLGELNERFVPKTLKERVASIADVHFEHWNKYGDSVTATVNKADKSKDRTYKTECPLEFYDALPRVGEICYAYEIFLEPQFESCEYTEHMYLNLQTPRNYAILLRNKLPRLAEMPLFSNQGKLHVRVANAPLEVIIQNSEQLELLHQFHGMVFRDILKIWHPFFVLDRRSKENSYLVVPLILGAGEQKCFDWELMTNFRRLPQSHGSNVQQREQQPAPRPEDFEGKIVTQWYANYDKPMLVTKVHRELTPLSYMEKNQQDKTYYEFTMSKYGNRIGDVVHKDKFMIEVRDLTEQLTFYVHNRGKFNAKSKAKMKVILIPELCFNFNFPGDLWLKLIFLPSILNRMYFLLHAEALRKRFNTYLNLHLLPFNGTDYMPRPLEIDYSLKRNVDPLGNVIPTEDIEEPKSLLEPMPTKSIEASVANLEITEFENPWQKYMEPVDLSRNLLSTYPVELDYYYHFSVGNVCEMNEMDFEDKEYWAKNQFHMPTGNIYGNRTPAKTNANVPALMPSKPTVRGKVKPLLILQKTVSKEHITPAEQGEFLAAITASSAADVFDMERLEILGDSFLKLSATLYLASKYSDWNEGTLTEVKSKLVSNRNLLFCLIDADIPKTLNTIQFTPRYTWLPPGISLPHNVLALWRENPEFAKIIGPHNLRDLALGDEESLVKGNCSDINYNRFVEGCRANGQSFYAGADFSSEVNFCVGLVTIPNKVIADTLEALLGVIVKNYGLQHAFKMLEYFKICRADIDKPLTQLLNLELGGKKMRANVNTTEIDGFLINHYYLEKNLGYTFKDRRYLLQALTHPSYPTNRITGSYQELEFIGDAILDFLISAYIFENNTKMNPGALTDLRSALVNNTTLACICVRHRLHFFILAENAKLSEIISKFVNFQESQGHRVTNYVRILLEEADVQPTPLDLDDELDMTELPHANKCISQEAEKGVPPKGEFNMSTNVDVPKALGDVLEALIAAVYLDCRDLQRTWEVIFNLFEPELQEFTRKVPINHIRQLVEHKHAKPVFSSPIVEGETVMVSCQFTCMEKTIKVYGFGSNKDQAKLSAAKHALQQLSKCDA
T1 sequence (chain, as listed by the source |, chain 2 of 2): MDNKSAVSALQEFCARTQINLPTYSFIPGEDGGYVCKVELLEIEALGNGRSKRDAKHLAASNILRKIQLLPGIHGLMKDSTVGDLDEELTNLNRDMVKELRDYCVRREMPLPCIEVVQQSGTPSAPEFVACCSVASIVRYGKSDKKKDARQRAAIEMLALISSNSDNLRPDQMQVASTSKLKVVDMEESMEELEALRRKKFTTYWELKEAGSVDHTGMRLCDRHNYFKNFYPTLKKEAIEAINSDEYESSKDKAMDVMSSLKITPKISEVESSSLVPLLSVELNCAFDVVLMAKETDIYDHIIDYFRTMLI
Dicer-2;R2D2 K98A, sequence (A1ZAW0 whole entry, chain 1 of 2): as the sequence (A1ZAW0 whole entry, chain 1 of 2) above
Dicer-2;R2D2 K98A, sequence (chain, as listed by the source |K98A | K98A K98A, chain 2 of 2): as the sequence (chain, as listed by the source |, chain 2 of 2) above, with K98A counted along it
Dicer-2;R2D2 CTD Δα2, sequence (A1ZAW0 whole entry, stated change not applied, chain 1 of 2): as the sequence (A1ZAW0 whole entry, chain 1 of 2) above
Dicer-2;R2D2 CTD Δα2, sequence (chain, as listed by the source | | mutant, chain 2 of 2): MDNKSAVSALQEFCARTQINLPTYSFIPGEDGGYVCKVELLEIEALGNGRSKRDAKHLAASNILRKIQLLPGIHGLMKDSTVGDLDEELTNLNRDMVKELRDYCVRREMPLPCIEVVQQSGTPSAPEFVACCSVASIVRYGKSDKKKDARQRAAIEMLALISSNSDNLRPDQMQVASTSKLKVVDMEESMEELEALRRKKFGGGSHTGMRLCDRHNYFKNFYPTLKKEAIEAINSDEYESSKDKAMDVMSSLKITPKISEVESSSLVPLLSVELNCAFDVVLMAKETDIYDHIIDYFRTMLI

B1: g* siRNA, 1-nt overhang (siRNA-4/siRNA-2) (dsRNA)
RNA 1: UGAGGUAGUAGGUUGUAUAU
RNA 2: UAUACAACCUACUACCUCUUU
modifications: 5-iodouracil at position 20 of strand 1 (written as U)
- binding result (Dicer-2;R2D2 [1]): binds

B2: g* siRNA, 2-nt overhang (siRNA-1/siRNA-2) (dsRNA)
RNA 1: UGAGGUAGUAGGUUGUAUAUU
RNA 2: UAUACAACCUACUACCUCUUU
modifications: 5-iodouracil at position 20 of strand 1 (written as U)
- binding result (Dicer-2;R2D2 [2]): binds
- binding result (Dicer-2;R2D2 K98A): binds
- binding result (Dicer-2;R2D2 CTD Δα2): binds

B3: g* siRNA, blunt stable end (siRNA-4/siRNA-5) (dsRNA)
RNA 1: UGAGGUAGUAGGUUGUAUAU
RNA 2: AUAUACAACCUACUACCUCUUU
modifications: 5-iodouracil at position 20 of strand 1 (written as U)
- binding result (Dicer-2;R2D2 [3]): binds

B4: let-7 siRNA duplex (guide/passenger) (dsRNA)
RNA 1: UGAGGUAGUAGGUUGUAUAGU
RNA 2: UAUACAACCUACUACCUCUCU
modifications: 5'-phosphate (passenger p1)
- binding result (Dicer-2;R2D2 [4]): binds
